The series deals with the molecule itself. Put plainly: SEC; purified Flag–NINJ1 alone on Superose 6 Increase 10/300 GL; 20 mM HEPES pH 7.5, 150 mM NaCl, 0.005% LMNG, 0.0005% CHS; peak at 8.5 ml retention volume. On the technique in general: In gel filtration, larger molecules generally elute earlier.

B1: N-terminally Flag-tagged mouse NINJ1 (natural protein, UniProt O70131 1-152, looked up)
chain: MESGTEEYELNGDLRPGSPGSPDALPPRWGLRNRPINVNHYANKKSAAESMLDIALLMANASQLKAVVEQGNDFAFFVPLVVLISISLVLQIGVGVLLIFLVKYDLNNPAKHAKLDFLNNLATGLVFIIVVVNIFITAFGVQKPVMDVAPRQ
notes: NINJ1 (ninjurin-1), mouse, expressed from pRK-Flag-mNINJ1; Membrane protein solubilised in 1% LMNG / 0.1% CHS; the oligomer size is heterogeneous and no copy number is told; also called Flag–NINJ1; recombinant NINJ1; source: Expi293F cells, transiently transfected, purified (anti-Flag M2 resin, Superose 6 SEC) in LMNG/CHS; not shown: FLAG, N-terminal, kept
Take B1: the binding result was “binds”.
